# Assay results published in the supplement of paper PMC10567573.
# B1: FBXO34 (parent)
# chain: ASSVESTLPVLEASSWKKQVSHDF
# B2: EHMT1 (parent)
# chain: SARQGELQKVLLMLVDGIDPNFKM
# Variants of: B1
# Assay: protein stability index of a GFP-peptide fusion (GPS, HEK-293T) (PSI 1-6); higher = more stable
# Details: c terminus: a fixed tail appended
# 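Note: lentivirally expressed fusions sorted by FACS into six bins by GFP to DsRed ratio, PSI derived from sequencing read proportions per bin multiplied by bin number.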
row,Variant,protein stability index
1,ASSVESTLPVLEASSWKKQVSHDW [F24W],2.45
2,ASSVESTLPVLEASSWKKQVSHDY [F24Y],3
3,ASSVESTLPVLEASSWKKQVSHDV [F24V],3.83
4,ASSVESTLPVLEASSWKKQVSHDS [F24S],4.33
5,ASSVESTLPVLEASSWKKQVSHDT [F24T],3.77
6,ASSVESTLPVLEASSWKKQVSHDQ [F24Q],4.25
7,ASSVESTLPVLEASSWKKQVSHDP [F24P],4.26
8,ASSVESTLPVLEASSWKKQVSHDI [F24I],2.19
9,ASSVESTLPVLEASSWKKQVSHDR [F24R],4.53
10,ASSVESTLPVLEASSWKKQVSHDK [F24K],4.79
11,ASSVESTLPVLEASSWKKQVSHDM [F24M],3
12,ASSVESTLPVLEASSWKKQVSHDN [F24N],4.25
13,ASSVESTLPVLEASSWKKQVSHDL [F24L],2.31

# Variants of: B2
# Assay: as above
# Details: c terminus: a fixed tail appended
row,Variant,protein stability index
1,SPRQGELQKVLLMLVDGIDPNFKM [A2P],2.31
2,SDRQGELQKVLLMLVDGIDPNFKM [A2D],1.61
3,SSRQGELQKVLLMLVDGIDPNFKM [A2S],3.14
4,STRQGELQKVLLMLVDGIDPNFKM [A2T],3.06
5,SIRQGELQKVLLMLVDGIDPNFKM [A2I],2.21
6,SMRQGELQKVLLMLVDGIDPNFKM [A2M],2.95
7,SRRQGELQKVLLMLVDGIDPNFKM [A2R],1.28
8,SQRQGELQKVLLMLVDGIDPNFKM [A2Q],1.78
9,SCRQGELQKVLLMLVDGIDPNFKM [A2C],3.59
10,SERQGELQKVLLMLVDGIDPNFKM [A2E],1.86
11,SFRQGELQKVLLMLVDGIDPNFKM [A2F],2.81
12,SARQGELQKVLLMLVPGIDPNFKM [D16P],2.41
13,SARQGELQKVLLMLVTGIDPNFKM [D16T],2.8
14,SARQGELQKVLLMLVIGIDPNFKM [D16I],1.69
15,SARQGELQKVLLMLVVGIDPNFKM [D16V],2.27
16,SARQGELQKVLLMLVKGIDPNFKM [D16K],2.45
17,SARQGELQKVLLMLVEGIDPNFKM [D16E],1.51
18,SARQGELQKVLLMLVAGIDPNFKM [D16A],2.11
19,SARQGELQKVLLMLVQGIDPNFKM [D16Q],2.49
20,SARQGEDQKVLLMLVDGIDPNFKM [L7D],2.19
21,SARQGEPQKVLLMLVDGIDPNFKM [L7P],1.84

row,Variant,protein stability index
1,SARQGEHQKVLLMLVDGIDPNFKM [L7H],3.17
2,SARQGEKQKVLLMLVDGIDPNFKM [L7K],1.67
3,SARQGEMQKVLLMLVDGIDPNFKM [L7M],1.27
4,SARQGEIQKVLLMLVDGIDPNFKM [L7I],2.81
5,SARQGEVQKVLLMLVDGIDPNFKM [L7V],1.03
6,SARQGELQKVLLMLVDLIDPNFKM [G17L],2.07
7,SARQGELQKVLLMLVDKIDPNFKM [G17K],1.36
8,SARQGELQKVLLMLVDVIDPNFKM [G17V],3.87
9,SARQGELQKVLLMLVDHIDPNFKM [G17H],1.87
10,SARQGELQKVLLMLVDDIDPNFKM [G17D],1.36
11,SARQGELQKVLLMLVDNIDPNFKM [G17N],2.78
12,SARQGELQKVLLMLVDEIDPNFKM [G17E],2.08
13,SARQGELQKVLLMLVDPIDPNFKM [G17P],1.97
14,SARQGELQKYLLMLVDGIDPNFKM [V10Y],3.4
15,SARQGELQKKLLMLVDGIDPNFKM [V10K],2.47
16,SARQGELQKNLLMLVDGIDPNFKM [V10N],3.15
17,SARQGELQKILLMLVDGIDPNFKM [V10I],2.01
18,SARQGELQKWLLMLVDGIDPNFKM [V10W],1.77
19,SARQGELQKDLLMLVDGIDPNFKM [V10D],3.36
20,SARQGELQKSLLMLVDGIDPNFKM [V10S],2.29
21,SARQGELQKQLLMLVDGIDPNFKM [V10Q],1.72

row,Variant,protein stability index
1,SARQGELQKGLLMLVDGIDPNFKM [V10G],1.94
2,SARQGELQKLLLMLVDGIDPNFKM [V10L],1.25
3,SARQGELQNVLLMLVDGIDPNFKM [K9N],1.91
4,SARQGELQFVLLMLVDGIDPNFKM [K9F],3.96
5,SARQGELQTVLLMLVDGIDPNFKM [K9T],2.9
6,SARQGELQAVLLMLVDGIDPNFKM [K9A],2.51
7,SARQGELQKVLLRLVDGIDPNFKM [M13R],1.73
8,SARQGELQKVLLDLVDGIDPNFKM [M13D],2.97
9,SARQGELQKVLLKLVDGIDPNFKM [M13K],1.89
10,SARQGELQKVLLALVDGIDPNFKM [M13A],1.73
11,SARQGELQKVLLPLVDGIDPNFKM [M13P],3.74
12,SARQGELQKVLLTLVDGIDPNFKM [M13T],2.35
13,SARQGELQKVILMLVDGIDPNFKM [L11I],2.1
14,SARQGELQKVTLMLVDGIDPNFKM [L11T],2.36
15,SARQGELQKVVLMLVDGIDPNFKM [L11V],2.7
16,SARQGELQKVDLMLVDGIDPNFKM [L11D],3.35
17,SARQGELQKVPLMLVDGIDPNFKM [L11P],3.13
18,SARQGELQKVKLMLVDGIDPNFKM [L11K],2.69
19,SARQGELQKVELMLVDGIDPNFKM [L11E],3.28
20,SARQGELQKVYLMLVDGIDPNFKM [L11Y],1.65
21,SARQGELQKVLTMLVDGIDPNFKM [L12T],1.28

row,Variant,protein stability index
1,SARQGELQKVLGMLVDGIDPNFKM [L12G],2.15
2,SARQGELQKVLPMLVDGIDPNFKM [L12P],3.64
3,SARQGELQKVLQMLVDGIDPNFKM [L12Q],2.02
4,SARQGELQKVLKMLVDGIDPNFKM [L12K],1.12
5,SARQGELQKVLHMLVDGIDPNFKM [L12H],2.39
6,SAPQGELQKVLLMLVDGIDPNFKM [R3P],2.83
7,SAGQGELQKVLLMLVDGIDPNFKM [R3G],1.86
8,SACQGELQKVLLMLVDGIDPNFKM [R3C],1.83
9,SAWQGELQKVLLMLVDGIDPNFKM [R3W],3.4
10,SAAQGELQKVLLMLVDGIDPNFKM [R3A],1.96
11,SAKQGELQKVLLMLVDGIDPNFKM [R3K],2.8
12,SARQGNLQKVLLMLVDGIDPNFKM [E6N],2.15
13,SARQGWLQKVLLMLVDGIDPNFKM [E6W],1.89
14,SARQGLLQKVLLMLVDGIDPNFKM [E6L],1.99
15,SARQGSLQKVLLMLVDGIDPNFKM [E6S],2.6
16,SARQGHLQKVLLMLVDGIDPNFKM [E6H],2.02
17,SARQGYLQKVLLMLVDGIDPNFKM [E6Y],3.65
18,SARQGQLQKVLLMLVDGIDPNFKM [E6Q],1.87
